From patent US7888090B2, “Mutants of O6-alkylguanine-DNA alkyltransferase” (Ecole Polytechnique Federale de Lausanne, priority 2004, dated 2011)

Assays:
[1] = compared to wild type hAGT; literature; cited from earlier work
[2] = system: oligonucleotide SEQ ID NO:2 (modified in position 14); experiment: Reactivity against DNA-based substrates (BG-Cy3 assay with BG-modified oligonucleotide); assay type: biochemical; conditions: 0.5 µM (or more) BG-modified oligonucleotide
Protocol: The ability of wild type AGT or mutant AGT to react with alkylated DNA substrates is measured as the reaction of its inactivation by a synthetic oligonucleotide containing O^6-benzylguanine (SEQ ID NO:2, modified in position 14). Subsequently, the reactions are quenched by incubation with biotinylated O^6-alkylguanine. Samples are subjected to Western blotting and detection with streptavidin derivates to obtain kinetic constants for these substrates. Alternatively, the ability of wild type or mutant AGT to react with alkylated DNA substrates is measured via its labeling efficiency in competition with a fluorescent substrate of AGT. The reaction kinetics of AGT with BG-Cy3 (O^6-benzylguanine coupled to Cy3) is followed by fluorescence intensity measurements at various concentrations of a competing synthetic oligonucleotide containing O^6-benzylguanine (SEQ ID NO:2, modified in position 14).
Reactivity against DNA-based substrates measured with a BG-Cy3 assay: BG-Cy3 is prepared by reacting the previously described O^6-(4-aminomethyl-benzyl)guanine (Keppler et al., NatureBiotechnol. 21:86-89, 2003) with the commercially available N-hydroxysuccinimide ester of Cy3, (Cy3-NHS, Amersham). The coupling reaction is performed at ambient temperature in N,N-dimethylformamide in the presence of 1 eq. of triethylamine. The BG-Cy3 conjugate is purified by reversed-phase HPLC on a C18-column by using linear gradients from 0.1% trifluoroacetic acid to acetonitrile. After solvent evaporation BG-Cy3 is dissolved in dimethyl sulfoxide and stored at −20° C. For measuring the reactivity with DNA-based substrates, a reaction mixture containing different concentrations (0 to 5 µM) of oligonucleotide SEQ ID NO:2 (modified in position 14), GST-AGT fusion protein at 0.2 µM and BG-Cy3 at […] in reaction buffer (50 mM HEPES, pH 7.2, 1 mM DTT, 200 mg/ml BSA) is incubated in microtiterplates. Fluorescence of the Cy3 derivative (excitation 519 nm, emission at 572 nm) is measured on a Spectramax Gemini plate reader (Molecular Devices).

[3] = Reactivity towards N^9-modified O^6-benzylguanine derivatives (preblocking, BG-Cy3 assay); assay type: biochemical; conditions: 100 µM N^9-isobutyl-, N^9-propyl-, N^9-cyanomethyl-O^6-benzylguanine, 15 min
Protocol: FIG. 3: Reactivity of AGT mutants with N^9-modified BG derivatives. 10 µM AGTM (grey bars) or PGEG-hAGT (black bars) were preblocked with 100 µM N^9-modified BG derivatives (see list below), and subsequently labeled with 20 µM BG-Cy3. After 1 h reaction time, fluorescence intensity (FI) indicated in arbitrary units [a.u.] at 595 nm is measured. The black bold line is set at the reading for condition 1 corresponding to background fluorescence of the fluorophore not attached to protein. Values above this line indicate slow or incomplete reaction with N^9-modified BG-derivative. • 1 Fluorescence of BG-Cy3 without protein; background fluorescence. • 2 Reaction with BG-Cy3; no preblocking, positive control. • 3 Reaction with BG-Cy3, preblocked with 100 µM BG. • 4 Reaction with BG-Cy3, preblocked with 100 µM N^9-isobutyl-O^6-benzylguanine. • 5 Reaction with BG-Cy3, preblocked with 100 µM N^9-propyl-O^6-benzylguanine. • 6 Reaction with BG-Cy3, preblocked with 100 µM N^9-cyanomethyl-O^6-benzylguanine.
Reactivity of AGT towards N^9-modified O^6-benzylguanine derivatives: The experiment is based on the BG-Cy3 assay. Upon reaction of AGT with BG-Cy3, an increase of fluorescence emission intensity of Cy3 by a factor 2-3 can be observed. […]

salmon sperm DNA = experiment: DNA binding as inhibition by DNA of the reaction with BG-Cy3; conditions: salmon sperm DNA 25 µg/ml
Protocol: (§1) The interaction with DNA is e.g. quantified by assessing the amount of copurified DNA from E. coli extracts under conditions of low salt and absence of DNase. This is compared between parallel purifications of fusion proteins (e.g. fusions to GST) of wild type (human) and mutant AGT by spectroscopic methods (ratio of absorbance at 260 and 280 nm). Alternatively the interaction of AGT with DNA is measured as the inhibition of AGT reactivity with BG-Cy3 (O^6-(4-aminomethyl-benzyl)-guanine coupled to Cy3) as substrate in the presence of DNA. This approach takes advantage of a marked increase of fluorescence of the Cy3 fluorophore upon reaction of BG-Cy3 with AGT. The reaction kinetics of AGT with a Cy3-labeled benzylguanine derivative is followed by fluorescence intensity measurements over several hours at various concentrations of salmon sperm DNA.
DNA binding: DNA binding is measured as inhibition by DNA of the reaction of AGT mutants with BG derivatives. The reaction rate of AGT mutants in a reaction mixture containing salmon sperm DNA (25 µg/ml) instead of oligonucleotide is measured with the BG-Cy3 assay. The reaction rate is determined by fitting the obtained data to a monoexponential increase to maximum.

[4] = Activity assay with biotinylated O^6-benzylguanine (BG-Bt), Western blotting; assay type: biochemical; conditions: statement in words
Procedure, shortened: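 Purified mutant GST-AGT (0.2 μM) reacted with 1 μM biotinylated O^6-benzylguanine in 50 mM HEPES pH 7.2, 1 mM DTT at room temperature. Time-point aliquots quenched with O^6-benzylguanine in SDS buffer. Biotinylated protein detected by Western blot with neutravidin-peroxidase, band intensity quantified.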

DNA = DNA binding in vitro (co-purified DNA, UV spectroscopy); set-up: species or system E. coli; conditions: co-purified DNA; compared to wild type hAGT or PGEG-hAGT
Protocol: as §1
For comparing the DNA binding properties of the protein in vitro, the harvested cells are resuspended, and the GST fusion protein is purified following the same method but in a buffer containing 50 mM phosphate, 0.1 M NaCl, 1 mM DTT. In the dialysed samples, the amount of subsequently co-purified DNA is estimated by UV spectroscopy. Spectra are recorded using a Perkin Elmer Lambda 10. The content of DNA corresponds to the ratio of the extinctions at 280 and 260 nm. […]

[5] = Stability after reaction with BG-FL; assay type: physicochemical; conditions: over 7 days
Protocol: Stability before reaction is determined for the mutant AGT or for a mutant AGT fusion protein by incubating purified samples in buffered aqueous solution for up to two weeks at 4° C. and up to six months at −20° C. At several time points, aliquots are taken and concentration of reactive AGT is estimated as described by Juillerat et al., Chem Biol 10:313-317, 2003. Stability for wild type AGT and the AGT mutant after reaction with a labelled substrate and after subsequent separation from unreacted substrate is determined by quantifying the concentration of the label in the soluble fraction over up to two weeks at 4° C. and up to three months at −20° C.
Stability after reaction: The vector pBAD/H is A (Invitrogen) is modified by cloning synthetic oligonucleotides (SEQ ID NO:29 and SEQ ID NO:30) between the NcoI and HindIII sites to include a 12×His-tag and SbfI and AscI cloning sites. The gene of AGTM is amplified with primers SEQ ID NO:31 and SEQ ID NO:32 and cloned between the SbfI/AscI sites into this vector. Wild type AGT and mutant AGT (Lys125Ala, Ala127Thr, Arg128Ala, Asn157Gly, Ser159Glu) are amplified with primers SEQ ID NO:31 and SEQ ID NO:33 and cloned into this vector. Protein expression is carried out in E. coli strain Top 10. An exponentially growing culture is induced with 0.2% arabinose, and the expression is carried out for 16 hours at 28° C. The cells are lysed by adding buffer to 10 ml/g containing 0.5 M NaCl, 80 mM imidazole, 1% Triton, 250 µM PMSF, 1 mM […]-mercaptoethanol, 5 mg/ml lysozyme, 20 µg/ml DNase and stirring for 45 min. […]
The AGT proteins at 10 µM) are quantitatively reacted with fluorescein-modified O^6-benzyl-guanine (substance 5 of Juillerat et al, Chem Biol 10:313-317, 2003, BG-FL, 20 µM) and purified over a size exclusion column (Econopac 10 DG, Bio-Rad) and incubated for 7 days. […] The fluorescence of the supernatant is measured with a Victor2 fluorescence plate reader (Perkin Elmer, excitation/emission at 485/535 nm).

CHO cells = experiment: Selective labelling in cells after CPTG pre-incubation; assay type: cell-based; conditions: 5 µM CPTG 10 min, then 5 µM fluorescent substance 4 20 min
Excerpt: In a further experiment, the mutant AGTM as described in Example 6 is amplified with the primers SEQ ID NO:34 and SEQ ID NO:36 and cloned between the NheI and BgIII sites of the vector pEGFP-Nuc. The […]-galactosidase gene is amplified with the primers SEQ ID NO:37 and SEQ ID NO:38 and subcloned into this vector via BgIII/BamHI to result in a vector with an AGTM-[…]-Gal fusion gene. The hAGT gene is amplified by the principle described under Example 1 with the primers SEQ ID NO:39, SEQ ID NO:40, SEQ ID NO:34, and SEQ ID NO:35 and cloned via NheI/BgIII into pEGFP-Nuc to result in an AGT-NLS3 fusion gene coding for the mutation Gly160Trp. After transient expression of both AGT mutants in parallel, the cells are incubated with 5 µM CPTG for 10 min and subsequently with 5 µM of substance 4 of Juillerat et al., Chem Biol 10:313-317, 2003, for 20 min. The cells are washed and imaged as described under Example 1.

| Molecule | activity against benzylguanine derivatives (factor) [1] | activity in presence of BG-modified oligonucleotide [2] | extent of reaction with N^9-modified BG derivatives [3] | reduction of reaction rate to BG-Cy3 in presence of DNA (salmon sperm DNA) | activity towards O^6-benzylguanine substrates [4] | DNA binding (DNA) | loss of soluble fluorescent protein [5] | reaction with CPTG inside cells (CHO cells) |
| --- | --- | --- | --- | --- | --- | --- | --- | --- |
| PGEG-hAGT: an AGT containing the mutations Asn157Gly, Ser159Glu (Juillerat et al., Chem Biol 10:313-317, 2003) (protein, UniProt P16455 1-207, looked up, variant N157G S159E) Methylated-DNA--protein-cystei …: MDKDCEMKRTTLDSPLGKLELSGCEQGLHEIKLLGKGTSAADAVEVPAPAAVLGGPEPLMQCTAWLNAYFHQPEAIEEFPVPALHHPVFQQESFTRQVLWKLLKVVKFGEVISYQQLAALAGNPKAARAVGGAMRGNPVPILIPCHRVVCSSGAVGGYEGGLAVKEWLLAHEGHRLGKPGLGGSSGLAGAWLKGAGATSGSPPAGRN | approximately 20 | less than 3% | reacts efficiently | 5 fold | – | – | – | – |
| Lys125Ala, Ala127Thr, Arg128Ala, Asn157Gly, Ser159Glu: hAGT mutant with the listed mutations, expressed as GST fusion (protein, UniProt P16455 1-207, looked up, variant K125A A127T R128A N157G S159E, GST fusion) Methylated-DNA--protein-cystei …: MDKDCEMKRTTLDSPLGKLELSGCEQGLHEIKLLGKGTSAADAVEVPAPAAVLGGPEPLMQCTAWLNAYFHQPEAIEEFPVPALHHPVFQQESFTRQVLWKLLKVVKFGEVISYQQLAALAGNPAATAAVGGAMRGNPVPILIPCHRVVCSSGAVGGYEGGLAVKEWLLAHEGHRLGKPGLGGSSGLAGAWLKGAGATSGSPPAGRN | – | – | – | – | retains activity | at least ten times reduced DNA binding | about 60% | – |
| AGT (Gly160Trp): Human AGT mutant Gly160Trp (Xu-Welliver et al.); expressed as AGT-NLS3 fusion (protein, UniProt P16455 1-207, looked up, variant G160W, NLS3 fusion) Methylated-DNA--protein-cystei …: MDKDCEMKRTTLDSPLGKLELSGCEQGLHEIKLLGKGTSAADAVEVPAPAAVLGGPEPLMQCTAWLNAYFHQPEAIEEFPVPALHHPVFQQESFTRQVLWKLLKVVKFGEVISYQQLAALAGNPKAARAVGGAMRGNPVPILIPCHRVVCSSGAVGNYSWGLAVKEWLLAHEGHRLGKPGLGGSSGLAGAWLKGAGATSGSPPAGRN | somewhat more reactive | – | – | – | – | – | – | efficiently reacts with CPTG inside cells |
